In patent US8367390B2, “Galactanase variants” (Novozymes A/S, priority 2002, dated 2013):

Assays:
Assay type in all cases: biochemical
[1] = pH profile of galactanase activity on lupin AZCL-galactan; settings: 15 min at 37° C., A590, unit assumed
Protocol: The pH profiles of the purified variants described above were established as follows: Galactanase activity at various pH was measured by mixing 500 μl 4 mg/ml lupin AZCL-galactan (Megazyme, Australia) in water with 500 μl buffer (50 mM sodium acetate, 50 mM potassium dihydrogenphosphate, 50 mM boric acid, 1 mM CaCl2, 0.01% Triton X-100 adjusted to pH 2.5, 3.5, 4.5, 5.5, 6.5, 7.5, 8.5 or 9.5 with HCl/NaOH) and 25 μl purified enzyme diluted to about 0.5-2 μg/ml in water. The mixture was incubated 15 min at 37° C., insoluble material was removed by centrifugation, and absorbance in the supernatant was measured at 590 nm.

[2] = Activity on lactose, products by HPAE-PAD; settings: lactose 100 mg/ml, 50° C.
[3] = Activity on lactose, products by HPAE-PAD; settings: lactose 100 mg/ml, 50° C., pH 6.45
Protocol: HIGAL (60 micrograms/ml) and MTGAL (750 μg/ml) were incubated at 50° C. with lactose (Lac) (100 mg/ml) at pH 4.8 (25 mM sodium citrate), 6.45 (25 mM sodium acetate, 0.5 mM CaCl2, 0.005% Triton X-100) and 8.6 (50 mM Tris, 0.01% Brij 35). 20 microliters samples were withdrawn after 2, 23 and 120 hours, 980 water added and enzyme inactivated by heating to 95° C. for 10 min. After a further 20 time dilution with water, samples were analysed using HPAE-PAD (Dionex LC-500 system, PA-100 column, 0-3 min: 150 mM NaOH, 3-19 min: linear gradient 0-0.18 M sodium acetate in 150 mM NaOH). Response factors for the individual peaks were estimated from standards of Gal, Glu, Lac, Gal2, Gal3 and Gal4.
In Tables 12 and 13 weight fractions of the analysed products with MTGAL at pH […] and 6.45 are given. The figures indicate weight % of the products resulting from the incubation. The term DP3 indicates transglycosylation product consisting of three sugar units, and the term DP4+ transglycosylation products consisting of four or more sugar units. Unfortunately, the analysis method used was not able to separate Glu and Gal.

[4] = pH 4.5, incubation time 2 hours
[5] = pH 4.5, incubation time 23 hours
[6] = pH 4.5, incubation time 120 hours
[7] = pH 6.45, incubation time 120 hours

B1: MTGAL: GH Family 53 galactanase from Myceliophthora thermophila, SEQ ID NO: 1 (wild type parent) (protein, listed as Myceliophthora thermophila)
chain: ALTYRGVDWSSVVVEERAGVSYKNTNGNAQPLENILAANGVNTVRQRVWVNPADGNYNLDYNIAIAKRAKAAGLGVYIDFHYSDTWADPAHQTMPAGWPSDIDNLSWKLYNYTLDAANKLQNAGIQPTIVSIGNEIRAGLLWPTGRTENWANIARLLHSAAWGIKDSSLSPKPKIMIHLDNGWDWGTQNWWYTNVLKQGTLELSDFDMMGVSFYPFYSSSATLSALKSSLDNMAKTWNKEIAVVETNWPISCPNPRYSFPSDVKNIPFSPEGQTTFITNVANIVSSVSRGVGLFYWEPAWIHNANLGSSCADNTMFSQSGQALSSLSVFQRI
modifications: mat_peptide (1)..()
Galactanase activity at pH 2.5 ([1]; pH 2.5): 0% | Galactanase activity at pH 3.5 ([1]; pH 3.5): 12% | Galactanase activity at pH 4.5 ([1]; pH 4.5): 41% | Galactanase activity at pH 5.5 ([1]; pH 5.5): 63% | Galactanase activity at pH 6.5 ([1]; pH 6.5): 90% | Galactanase activity at pH 7.5 ([1]; pH 7.5): 100% | Galactanase activity at pH 8.5 ([1]; pH 8.5): 54% | Galactanase activity at pH 9.5 ([1]; pH 9.5): 7% | DP3 in products [2, 4]: 2.0 weight % | DP4+ in products [2, 4]: 0.5 weight % | Glu/Gal in products [2, 4]: 1.4 weight % | Lac/Gal2 in products [2, 4]: 96.0 weight % | DP3 in products [2, 5]: 7.0 weight % | DP4+ in products [2, 5]: 1.8 weight % | Glu/Gal in products [2, 5]: 12.5 weight % | Lac/Gal2 in products [2, 5]: 78.7 weight % | DP3 in products [2, 6]: 8.9 weight % | DP4+ in products [2, 6]: 1.1 weight % | Glu/Gal in products [2, 6]: 38.8 weight % | Lac/Gal2 in products [2, 6]: 51.2 weight % | DP4+ in products ([2]; pH 6.45, incubation time 2 hours): 1.9 weight % | DP4+ in products ([2]; pH 6.45, incubation time 23 hours): 1.9 weight % | DP3 in products [2, 7]: 11.7 weight % | DP4+ in products [2, 7]: 4.7 weight % | Lac/Gal2 in products [2, 7]: 62.6 weight % | Conversion of Lac ([2]; pH 4.5 and 6.5): significant conversion of Lac | DP3 in products ([3]; incubation time 2 hours): 1.4 weight % | Glu/Gal in products ([3]; incubation time 2 hours): 1.0 weight % | Lac/Gal2 in products ([3]; incubation time 2 hours): 95.7 weight % | DP3 in products ([3]; incubation time 23 hours): 6.3 weight % | Glu/Gal in products ([3]; incubation time 23 hours): 6.5 weight % | Lac/Gal2 in products ([3]; incubation time 23 hours): 85.3 weight % | Glu/Gal in products ([3]; incubation time 120 hours): 21.0 weight %
